Experimental data: paper PMC6765112, “Specificity of MYB interactions relies on motifs in ordered and disordered contexts” (Nucleic Acids Research, 2019)
Where a chain is given by its changes, count along the chain named. In names and notes the source's numbering stands. Ends that are not written are not given here.

Key:
[1] = tested on: MYC4; assay: Split-ubiquitin assay, MYC4 as bait; type: cell-based, Arabidopsis thaliana; details: yeast, SD-AHLW growth
Procedure: (§1) The rapamycin-compatible yeast strain NMY51 TOR1-1 Δfpr1 ([35]) was transformed according to DUALhunter™ kit instructions (Dualsystems biotech). Briefly, overnight 2×YPAD cultures were diluted to OD600 = 0.2, and incubated at 30°C, 150 RPM for 4–6 h in 2×YPAD, before harvesting the cells by centrifugation at 700 g for 5 min. The cells were washed with H2O, then 0.1 M LiOAc, before resuspending in 0.1 M LiOAc with 15% glycerol. The competent cells were then aliquoted and stored at −80°C until transformation. For double transformation with bait and prey plasmids, competent cells were thawed on ice, and mixed with transformation mix (240 μl 50% PEG-3350, 35 μl 1 M LiOAc and 25 μl 2 mg/ml ssDNA per transformation) and 200 ng of each plasmid, before being exposed to a 42°C heat shock in a water bath for 45 min. The cells were then chilled on ice for a few minutes, sedimented by centrifugation (3000 g, 1 min), resuspended in sterile H2O, plated on SD-LW plates and grown at 30°C for 2–3 days.
(§2) For drop tests, cells from three individual colonies of each bait/prey combination were grown overnight in liquid SD-LW media. Next day, culture densities were normalized to OD600 = 0.05, dilution series (OD600 = 0.05, OD600 = 0.005, OD600 = 0.0005 and OD600 = 0.00005) were spotted on square plates (SD-LW, SD-AHLW and SD-AHLW+Rapa) and grown for 2 days at 30°C before taking pictures.
(§3) To identify interaction sites mediating specific MYB–MYC complex formation, we selected two TFs from each family. These were MYB28 and MYB29 from MYB subgroup 12, and two of their partner bHLH TFs, MYC3 and MYC4. To define the region mediating the interactions we applied a chemically inducible dimerization split-ubiquitin system ([35]). […] This is used as an in-built positive control for correct expression and functionality of the prey fusion protein and thereby reduces the incidence of false negatives.

[2] = tested on: MYC3; assay: Split-ubiquitin assay, MYC3 as bait; type: cell-based, Arabidopsis thaliana; details: yeast, SD-AHLW growth
Procedure: as §1, §2, §3

With “MYB29 (S175-L222): 47-residue fragment of MYB29 (S175-L222) (SKKRCFKRSSSTSKLLNKVAARASSMGTILGASIEGTLISSTPLSSCL; not fully specified; cysteine pairing not given here)” the “interaction with MYC4 (in words)” value [1] was “sufficient for the interaction”.

For MYB32: MYB TF from subgroup 4, the “interaction with MYC3 (in words)” value [2] was “did not” and the “interaction with MYC4 (in words)” value [1] was “did not”.

B1: MYB113: MYB TF from subgroup 6 (protein)
chain: MGESPKGLRKGTWTTEEDILLRQCIDKYGEGKWHRVPLRTGLNRCRKSCRLRWLNYLKPSIKRGKLCSDEVDLVLRLHKLLGNRWSLIAGRLPGRTANDVKNYWNTHLSKKHDERCCKTKMINKNITSHPTSSAQKIDVLKPRPRSFSDKNSCNDVNILPKVDVVPLHLGLNNNYVCESSITCNKDEQKDKLININLLDGDNMWWESLLEADVLGPEATETAKGVTLPLDFEQIWARFDEETLELN
modifications: left off: NubG and FRB (from the vector pFRB), end not stated, kept
In the case of B1, the “interaction with MYC3 (in words)” value [2] is reported as “did not” and the “interaction with MYC4 (in words)” value [1] is reported as “did not”.

B2: MYB51: MYB TF from subgroup 12, containing a MIM (protein)
chain: MVRTPCCKAELGLKKGAWTPEEDQKLLSYLNRHGEGGWRTLPEKAGLKRCGKSCRLRWANYLRPDIKRGEFTEDEERSIISLHALHGNKWSAIARGLPGRTDNEIKNYWNTHIKKRLIKKGIDPVTHKGITSGTDKSENLPEKQNVNLTTSDHDLDNDKAKKNNKNFGLSSASFLNKVANRFGKRINQSVLSEIIGSGGPLASTSHTTNTTTTSVSVDSESVKSTSSSFAPTSNLLCHGTVATTPVSSNFDVDGNVNLTCSSSTFSDSSVNNPLMYCDNFVGNNNVDDEDTIGFSTFLNDEDFMMLEESCVENTAFMKELTRFLHEDENDVVDVTPVYERQDLFDEIDNYFG
modifications: left off: NubG and FRB (from the vector pFRB), end not stated, kept
notes: MYB TF from subgroup 12, containing a MIM
For B2, the “interaction with MYC3 (in words)” value [2] was “interacted with both MYC3 and MYC4” and the “interaction with MYC4 (in words)” value [1] was “interacted with both MYC3 and MYC4”.

B3: MYB29 mut: MYB29 with mutations to abolish the MIM: L190K, K192N and A194Y (protein)
chain: MSRKPCCVGEGLKKGAWTAEEDKKLISYIHEHGEGGWRDIPQKAGLKRCGKSCRLRWANYLKPDIKRGEFSYEEEQIIIMLHASRGNKWSVIARHLPKRTDNEIKNYWNTHLKKLLIDKGIDPVTHKPLAYDSNPDEQSQSGSISPKSLPPSSSKNVPEITSSDETPKYDASLSSKKRCFKRSSSTSKLKNNVYARASSMGTILGASIEGTLISSTPLSSCLNDDFSETSQFQMEEFDPFYQSSEHIIDHMKEDISINNSEYDFSQFLEQFSNNEGEEADNTGGGYNQDLLMSDVSSTSVDEDEMMQNITGWSNYLLDHSDFNYDTSQDYDDKNFI
modifications: left off: NubG and FRB (from the vector pFRB), end not stated, kept
notes: MYB29 with mutations to abolish the MIM: L190K, K192N and A194Y
B3 was tested, and the “interaction with MYC3 (in words)” value [2] was “abolished interaction with MYC3 and MYC4” and the “interaction with MYC4 (in words)” value [1] was “abolished interaction with MYC3 and MYC4”.

B4: L190F: mutated MYB29 (AAs 120-222); MIM sequence - S TS KL FNK VA ARA SS - (protein)
chain: GIDPVTHKPLAYDSNPDEQSQSGSISPKSLPPSSSKNVPEITSSDETPKYDASLSSKKRCFKRSSSTSKLFNKVAARASSMGTILGASIEGTLISSTPLSSCL
modifications: left off: NubG and FRB (from the vector pFRB), end not stated, kept
In the case of B4, the “interaction with MYC4 (in words)” value [1] is reported as “weakly interacting”.

B5: N191L: mutated MYB29 (AAs 120-222); MIM sequence - S TS KL LLK VA ARA SS - (protein)
chain: B4 chain with F71L, N72L
modifications: left off: NubG and FRB (from the vector pFRB), end not stated, kept
With B5 the “interaction with MYC4 (in words)” value [1] was “weakly interacting”.

B6: N191Q: mutated MYB29 (AAs 120-222); MIM sequence - S TS KL LQK VA ARA SS - (protein)
chain: B4 chain with F71L, N72Q
modifications: left off: NubG and FRB (from the vector pFRB), end not stated, kept
B6 was tested, and the “interaction with MYC4 (in words)” value [1] was “weakly interacting”.

B7: MYB21: MYB TF from subgroup 19 (protein)
chain: MEKRGGGSSGGSGSSAEAEVRKGPWTMEEDLILINYIANHGDGVWNSLAKSAGLKRTGKSCRLRWLNYLRPDVRRGNITPEEQLIIMELHAKWGNRWSKIAKHLPGRTDNEIKNFWRTRIQKYIKQSDVTTTSSVGSHHSSEINDQAASTSSHNVFCTQDQAMETYSPTPTSYQHTNMEFNYGNYSAAAVTATVDYPVPMTVDDQTGENYWGMDDIWSSMHLLNGN
modifications: left off: NubG and FRB (from the vector pFRB), end not stated, kept
B7 was tested, and the “interaction with MYC3 (in words)” value [2] was “not able to reproduce the interaction” and the “interaction with MYC4 (in words)” value [1] was “not able to reproduce the interaction”.

B8: MYB29 non-MYB region (G120-I336): non-MYB region of MYB29 (G120-I336) (protein)
chain: GIDPVTHKPLAYDSNPDEQSQSGSISPKSLPPSSSKNVPEITSSDETPKYDASLSSKKRCFKRSSSTSKLLNKVAARASSMGTILGASIEGTLISSTPLSSCLNDDFSETSQFQMEEFDPFYQSSEHIIDHMKEDISINNSEYDFSQFLEQFSNNEGEEADNTGGGYNQDLLMSDVSSTSVDEDEMMQNITGWSNYLLDHSDFNYDTSQDYDDKNFI
modifications: left off: NubG and FRB (from the vector pFRB), end not stated, kept
In the case of B8, the “interaction with MYC4 (in words)” value [1] is reported as “mediated by the non-MYB region”.

B9: MYB47: R2R3 MYB TF containing 165LLNKLA170 (protein)
chain: MGRTTWFDVDGMKKGEWTAEEDQKLGAYINEHGVCDWRSLPKRAGLQRCGKSCRLRWLNYLKPGIRRGKFTPQEEEEIIQLHAVLGNRWAAMAKKMQNRTDNDIKNHWNSCLKKRLSRKGIDPMTHEPIIKHLTVNTTNADCGNSSTTTSPSTTESSPSSGSSRLLNKLAAGISSRQHSLDRIKYILSNSIIESSDQAKEEEEKEEEEEERDSMMGQKIDGSEGEDIQIWGEEEVRRLMEIDAMDMYEMTSYDAVMYESSHILDHLF
modifications: left off: NubG and FRB (from the vector pFRB), end not stated, kept
notes: R2R3 MYB TF containing 165LLNKLA170
B9 was tested, and the “interaction with MYC3 (in words)” value [2] was “we could confirm those interactions” and the “interaction with MYC4 (in words)” value [1] was “we could confirm those interactions”.

B10: MYB29 DBD (residues M1-H126): DBD of MYB29 (residues M1-H126) (protein)
chain: MSRKPCCVGEGLKKGAWTAEEDKKLISYIHEHGEGGWRDIPQKAGLKRCGKSCRLRWANYLKPDIKRGEFSYEEEQIIIMLHASRGNKWSVIARHLPKRTDNEIKNYWNTHLKKLLIDKGIDPVTH
modifications: left off: NubG and FRB (from the vector pFRB), end not stated, kept
B10 was tested, and the “interaction with MYC4 (in words)” value [1] was “neither sufficient, nor necessary for the interaction”.
